According to patent publication US7572895B2, “Transferrin receptor antibodies” (Raven Biotechnologies, Inc., priority 2004, dated 2009):

Columns and labels:
[1] = target: human transferrin receptor, full length, on cells (human) (UniProt P02786); experiment: cell-based or functional assay
HCT15 tumor xenograft = experiment: Established HCT15 tumor xenograft model; assay type: in vivo, mice; conditions: antibody 500 ug twice weekly for four weeks; gemcitabine 120 mg/kg q3d ×2
Experimental: For each experimental group, data is plotted until the first animal presents with a tumor greater than 1000 mm^3.
LUCA31 was particularly active in blocking the proliferation of the colon carcinoma cell line HCT15. […] In this study, groups of 15 mice were treated twice weekly with 500 ug of antibody for four weeks. Gemcitabine was dosed on a q3d ×2 schedule at 120 mg/kg, which is near the MTD. Treatment was initiated when tumor volumes averaged 70 mm^3. In FIG. 16A, the median tumor volumes are shown and in FIG. 16B, the mean tumor volumes with error bars are presented. In this experiment, the LUCA31 antibody produced a tumor growth delay of greater than 14 days, relative to the saline control. Gemcitabine produced a 20-day tumor growth delay and the combination of LUCA31 and gemcitabine produced a tumor growth delay of 18 days relative to gemcitabine alone.

Chain of UniProt P02786 (P02786 whole entry): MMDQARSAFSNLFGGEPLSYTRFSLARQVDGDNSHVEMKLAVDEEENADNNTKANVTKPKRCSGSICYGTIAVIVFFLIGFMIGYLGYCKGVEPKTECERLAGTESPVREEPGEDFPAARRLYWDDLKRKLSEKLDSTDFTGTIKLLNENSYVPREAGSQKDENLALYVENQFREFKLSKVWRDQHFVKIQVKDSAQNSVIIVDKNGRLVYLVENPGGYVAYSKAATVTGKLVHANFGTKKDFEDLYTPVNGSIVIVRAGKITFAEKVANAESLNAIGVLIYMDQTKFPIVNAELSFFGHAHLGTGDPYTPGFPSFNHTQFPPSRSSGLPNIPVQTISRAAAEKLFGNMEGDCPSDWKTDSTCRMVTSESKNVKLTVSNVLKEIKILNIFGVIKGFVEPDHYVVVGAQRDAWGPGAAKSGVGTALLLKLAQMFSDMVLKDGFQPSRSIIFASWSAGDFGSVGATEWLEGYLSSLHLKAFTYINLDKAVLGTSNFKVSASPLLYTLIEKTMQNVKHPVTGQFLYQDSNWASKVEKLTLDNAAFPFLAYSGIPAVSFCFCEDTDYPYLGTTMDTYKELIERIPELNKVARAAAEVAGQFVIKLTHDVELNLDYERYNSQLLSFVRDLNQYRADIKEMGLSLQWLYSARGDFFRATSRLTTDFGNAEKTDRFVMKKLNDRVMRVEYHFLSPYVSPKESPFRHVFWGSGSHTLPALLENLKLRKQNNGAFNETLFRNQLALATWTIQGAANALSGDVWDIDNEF

Row | Compound | Maximum inhibition (% inhibition) of cell proliferation, Calu6 cells [1] [%] | Maximum inhibition (% inhibition) of cell proliferation, Colo205 cells [1] [%] | Maximum inhibition (% inhibition) of cell proliferation, SW48 cells [1] [%] | tumor growth delay relative to the saline control (HCT15 tumor xenograft) [days] | Maximum inhibition (% inhibition) of cell proliferation, LS174T cells [1] [%] | growth inhibition (MTT), 786-O cells, LUCA31 at 20 ug/ml [1] [%] | growth inhibition (MTT), Colo205 cells, LUCA31 at 20 ug/ml [1] [%] | growth inhibition (MTT), MDA-MB-175VII cells, LUCA31 at 20 ug/ml [1] [%] | growth inhibition (MTT), SKMES-1 cells, LUCA31 at 20 ug/ml [1] [%] | maximum inhibition of cell proliferation (tritiated thymidine incorporation), Calu-6 cells [1] [%]
1 | transferrin receptor antibody 42/6 | 0 | 25 | 0 |  |  |  |  |  |  | 
2 | Nc1ccn([C@@H]2O[C@H](CO)[C@@H](O)C2(F)F)c(=O)n1 [Gemcitabine, gemcitabine] |  |  |  | 20 |  |  |  |  |  | 
3 | LUCA31 monoclonal antibody (mouse anti-human transferrin receptor antibody produced by hybridoma CA130.3.13C9.1A7, ATCC PTA-6055) | 25 | 25 | 35 |  | 35 | 54 | 37 | 35 | 45 | 45
